Source: IntAct's records for PubMed 18200045

B1: Epidermal growth factor receptor substrate 15 (Homo sapiens), P42566 (parent)
chain: MAAAAQLSLTQLSSGNPVYEKYYRQVDTGNTGRVLASDAAAFLKKSGLPDLILGKIWDLADTDGKGILNKQEFFVALRLVACAQNGLEVSLSSLNLAVPPPRFHDTSSPLLISGTSAAELPWAVKPEDKAKYDAIFDSLSPVNGFLSGDKVKPVLLNSKLPVDILGRVWELSDIDHDGMLDRDEFAVAMFLVYCALEKEPVPMSLPPALVPPSKRKTWVVSPAEKAKYDEIFLKTDKDMDGFVSGLEVREIFLKTGLPSTLLAHIWSLCDTKDCGKLSKDQFALAFHLISQKLIKGIDPPHVLTPEMIPPSDRASLQKNIIGSSPVADFSAIKELDTLNNEIVDLQREKNNVEQDLKEKEDTIKQRTSEVQDLQDEVQRENTNLQKLQAQKQQVQELLDELDEQKAQLEEQLKEVRKKCAEEAQLISSLKAELTSQESQISTYEEELAKAREELSRLQQETAELEESVESGKAQLEPLQQHLQDSQQEISSMQMKLMEMKDLENHNSQLNWCSSPHSILVNGATDYCSLSTSSSETANLNEHVEGQSNLESEPIHQESPARSSPELLPSGVTDENEVTTAVTEKVCSELDNNRHSKEEDPFNVDSSSLTGPVADTNLDFFQSDPFVGSDPFKDDPFGKIDPFGGDPFKGSDPFASDCFFRQSTDPFATSSTDPFSAANNSSITSVETLKHNDPFAPGGTVVAASDSATDPFASVFGNESFGGGFADFSTLSKVNNEDPFRSATSSSVSNVVITKNVFEETSVKSEDEPPALPPKIGTPTRPCPLPPGKRSINKLDSPDPFKLNDPFQPFPGNDSPKEKDPEIFCDPFTSATTTTNKEADPSNFANFSAYPSEEDMIEWAKRESEREEEQRLARLNQQEQEDLELAIALSKSEISEA
partner: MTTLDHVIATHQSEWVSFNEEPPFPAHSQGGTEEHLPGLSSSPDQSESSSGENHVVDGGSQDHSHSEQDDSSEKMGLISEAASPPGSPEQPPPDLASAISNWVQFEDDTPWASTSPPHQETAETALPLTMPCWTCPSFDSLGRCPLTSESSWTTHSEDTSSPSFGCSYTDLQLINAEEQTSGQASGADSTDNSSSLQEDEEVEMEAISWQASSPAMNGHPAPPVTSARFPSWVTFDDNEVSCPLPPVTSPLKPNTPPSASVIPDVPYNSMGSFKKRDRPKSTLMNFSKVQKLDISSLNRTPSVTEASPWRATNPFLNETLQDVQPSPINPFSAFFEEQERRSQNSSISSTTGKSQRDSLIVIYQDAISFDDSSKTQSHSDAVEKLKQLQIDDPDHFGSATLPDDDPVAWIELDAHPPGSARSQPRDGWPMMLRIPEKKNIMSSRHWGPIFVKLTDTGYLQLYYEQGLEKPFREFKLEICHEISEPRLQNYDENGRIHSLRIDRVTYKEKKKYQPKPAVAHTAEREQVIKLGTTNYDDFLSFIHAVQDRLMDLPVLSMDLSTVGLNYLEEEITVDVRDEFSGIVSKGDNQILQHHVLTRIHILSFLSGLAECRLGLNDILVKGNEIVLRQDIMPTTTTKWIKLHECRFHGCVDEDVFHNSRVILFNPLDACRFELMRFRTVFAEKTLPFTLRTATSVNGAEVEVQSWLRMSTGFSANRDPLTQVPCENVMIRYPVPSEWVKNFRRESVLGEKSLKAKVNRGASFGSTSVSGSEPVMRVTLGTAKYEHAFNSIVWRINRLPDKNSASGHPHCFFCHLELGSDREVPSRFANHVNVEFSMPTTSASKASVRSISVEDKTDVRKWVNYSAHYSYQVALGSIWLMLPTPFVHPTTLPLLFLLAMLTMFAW

Variants of: B1
Details: with ston2_human STON2, Q8WXE9

| effect of a mutation on the interaction | Variant |
| --- | --- |
| decreasing interaction | W266A |

Variants of: B1
Details: with ston2_human STON2, Q8WXE9
Remark: another data set of the same source

| effect of a mutation on the interaction | Variant |
| --- | --- |
| decreasing interaction | Y193D |

Variants of: B1
Details: with ston2_human STON2, Q8WXE9
Remark: another data set of the same source

| effect of a mutation on the interaction | Variant |
| --- | --- |
| decreasing interaction | V154E |

Variants of: B1
Details: with ston2_human STON2, Q8WXE9
Remark: another data set of the same source

| effect of a mutation on the interaction | Variant |
| --- | --- |
| disrupting interaction | V154E |

Variants of: B1
Details: with ston2_human STON2, Q8WXE9
Remark: another data set of the same source

| effect of a mutation on the interaction | Variant |
| --- | --- |
| decreasing interaction | W169A |

Variants of: B1
Details: with ston2_human STON2, Q8WXE9
Remark: another data set of the same source

| effect of a mutation on the interaction | Variant |
| --- | --- |
| disrupting interaction | W169A |
